Measured values: paper doi:10.1101/2020.02.28.969287
Read-outs that look alike come from different tables or passages of the source. Each block holds one substance with its values, some of them ahead of it.

Columns and labels:
[1] = molecular target: KcsA (pT7-KcsA construct, N-terminal His-tag) in native SMA nanodiscs (Streptomyces lividans) (UniProt P0A334); test: mass photometry + other: lipid-to-protein ratio
[2] = molecular target: E. coli outer membrane protein F (OmpF) (E. coli) (UniProt P02931); test: mass photometry
[3] = molecular target: E. coli outer membrane protein F (OmpF) (E. coli) (UniProt P02931); test: native MS
[4] = molecular target: E. coli bo3 oxidase (E. coli) (UniProt P0ABJ3); test: SEC-MALS
[5] = molecular target: E. coli bo3 oxidase (E. coli) (UniProt P0ABJ3); test: mass photometry
[6] = molecular target: potassium channel KcsA from Streptomyces lividans (pET-28a construct, N-terminal His-tag) (Streptomyces lividans) (UniProt P0A334); test: mass photometry
[7] = molecular target: potassium channel KcsA from Streptomyces lividans (pET-28a construct, N-terminal His-tag) (Streptomyces lividans) (UniProt P0A334); test: mass photometry; remark: listed apart in the source

Substance: KcsA (pT7-KcsA construct, N-terminal His-tag) in native SMA nanodiscs (from UniProt P0A334 1-160) (natural protein)
- stoichiometry N [1]: 8

- stoichiometry N [2]: 3
- stoichiometry N [3]: 3
Substance: E. coli outer membrane protein F (OmpF) (from UniProt P02931 23-362) (natural protein)

- relative abundance of dimers [4]: 28%
- relative abundance of monomers [4]: 72%
- stoichiometry N [4]: 2
- relative abundance of dimers [5]: 20%
- relative abundance of monomers [5]: 80%
- stoichiometry N [5]: 2
Substance: E. coli bo3 oxidase (from UniProt P0ABJ3 1-204) (complex)

Substance: potassium channel KcsA from Streptomyces lividans (pET-28a construct, N-terminal His-tag) (from UniProt P0A334 1-160) (natural protein)
- stoichiometry N [6]: 4
- stoichiometry N [7]: 4
